{"source": "paper PMC11476691", "about": "“ATM1, an essential conserved transporter in Apicomplexa, bridges mitochondrial and cytosolic [Fe-S] biogenesis” (PLOS Pathogens, 2024)", "molecules": {"B1": {"name": "PfATM1-CTD (domain or fragment, P. falciparum, UniProt Q8IDH9 807-1049, looked up)", "chain": "LKNHKIINNSPNYNNNNYLFQNFTCNIENGEKVAIIGKSGSGKSSLIKLLLKFYEVNSGNIYIDNKNIDDIDLYTLRKNISVVPQDTILFNNTISYNIKYGNFQCTDKQMIQASIKAELHDKIMKMENKYDTIVGERGTKLSIGEKQRICIARCFLKDSKIIVLDEHASNLDNENKKAIEKALTKLCMGKTTFIITHVMENLKHMDKIIFFCGKNIYVGSHKNLMDDNHFYREYYDSKNNKML", "notes": "P. falciparum ATM1 (PfATM1, ABCB6, MDR6), PF3D7_1352100, C-terminal ATPase domain, aa 807-1049; Cloned in pET23a; About 30 kDa, with a dimeric form of about 60 kDa on SDS-PAGE; also called C-terminal ATPase domain of PfATM1; source: E. coli BL21 (DE3), purified (Ni-NTA, SEC Superdex S-75)"}, "B2": {"name": "PfATM1 (PfABCB6 / PfMDR6) (Plasmodium falciparum 3D7) (protein)", "chain": "RISDEFYSSFLYHSYIENLKSTKEYVYFIYLQDIYYNINIFKNKGRLYISNNGLCNDKLKDNNNNNNINSNNFGNSYNAYTKKKSFYHSFNDLNEAKEIRKKRKNEKSEKNIVEYLLCNIINPNENYHIQNIYNHNLNNNVSIEIHKKNDSVMYHYNNEKKTKTSKMTTDIKLKQINNVYIKYVPYKNKIITLACPNKYYPTLYRYFSSHTNKKEDAEENDKNKNININNVDNRYKEDFMYGCENKNDSEKHKKTTNNNFGDEFEKLKVKELDKILNKLEMLYDNKNNKMNINVKILGYIFKNFLLKNKELKRKIFCSLFFLLCSKMAIIYTPILLSTFIENVNLQKSLSNNIDIYSTNKSSVLLLCAYVFSRVLSSTMNELRNSVFSNISQKISTFVSKLFFYKIHNLNLTYILSKKNGELSFIFNRGCKSITNLLNVMVFQIIPIIIEFILYLYILTYKIHYTVSLVTCFNMFLYVLFTTLITKRRTIIRKHMNKAEQNTFNIFLDSIQNVEQVKYYTNEIHELKKFIKEQKKYEKEAINVQKSLSFLNFGQQIILNTNLFLCMYLTYLNIANDIFPFSYLILVNTLLFQLAMPLNMFGTIYRETKLSLVDIESMIKILVKKIKSPDYGNQMLIKNGNIKFENVYFKYPLNEDINGLEQNYQAKEKDPNIINNINNINNINNINNINNINSINNIYTFESNVKNISSTNMITSSINKLKKWYLDKVKDNKKNVQYNNNDVKKTNPNITKNLNKEIKENINTHLKNHKIINNSPNYNNNNYLFQNFTCNIENGEKVAIIGKSGSGKSSLIKLLLKFYEVNSGNIYIDNKNIDDIDLYTLRKNISVVPQDTILFNNTISYNIKYGNFQCTDKQMIQASIKAELHDKIMKMENKYDTIVGERGTKLSIGEKQRICIARCFLKDSKIIVLDEHASNLDNENKKAIEKALTKLCMGKTTFIITHVMENLKHMDKIIFFCGKNIYVGSHKNLMDDNHFYREYYDSKNNKML", "notes": "predicted mature form aa 43-1049 (MTS removed), E. coli YbeL hydrophilic domain (beta) and 6xHis fused at both N- and C-termini (pET28a beta-PfATM1-beta), E. coli C43, 152 kDa monomer, homodimer"}, "B3": {"name": "recombinant PfATM1 (6X-His tagged β-PfATM1-β) (natural protein, P. falciparum, UniProt Q8IDH9 43-1049, looked up)", "chain": "B2 chain", "notes": "P. falciparum ATM1 (PfATM1, ABCB6, MDR6), PF3D7_1352100, predicted mature form, aa 43-1049; Monomer 152 kDa, dimer about 300 kDa with the fusion domains; also called full-length PfATM1; PfATM1 dimer; source: E. coli C43, purified from membranes (DDM and Triton X-114, Ni-NTA, SEC Superdex S-200); not shown: E. coli YbeL hydrophilic fusion domain (β), N-terminal, kept; E. coli YbeL hydrophilic …"}}, "key": {"PfATM1-CTD": {"target": "T1, PfATM1-CTD (Plasmodium falciparum, UniProt Q8IDH9)", "T1 construct": "gene ABCB6", "T1 sequence (Q8IDH9 807-1049)": "B1 chain", "test": "UV-VIS spectroscopy", "format": "binding", "conditions": "as purified; lower intensity than full length"}, "PfIscA2": {"target": "T2, PfIscA2 (Plasmodium falciparum, UniProt O97297)", "T2 construct": "gene IscA2; GST fusion from pGEX-KG in E. coli C43, GST removed by thrombin", "T2 sequence (O97297 1-404)": "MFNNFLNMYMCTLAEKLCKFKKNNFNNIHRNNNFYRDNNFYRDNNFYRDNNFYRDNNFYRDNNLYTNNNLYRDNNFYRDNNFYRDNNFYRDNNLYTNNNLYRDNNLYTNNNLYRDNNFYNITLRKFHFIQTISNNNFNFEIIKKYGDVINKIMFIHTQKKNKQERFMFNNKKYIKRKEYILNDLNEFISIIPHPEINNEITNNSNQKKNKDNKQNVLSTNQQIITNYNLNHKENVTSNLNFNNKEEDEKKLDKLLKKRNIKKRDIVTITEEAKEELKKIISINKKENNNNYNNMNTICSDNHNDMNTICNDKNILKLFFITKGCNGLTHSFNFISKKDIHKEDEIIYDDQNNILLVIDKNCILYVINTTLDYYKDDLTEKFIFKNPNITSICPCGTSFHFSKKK", "test": "chemical reconstitution, cluster donor assay, UV-VIS", "format": "binding", "conditions": "anaerobic, 25 mM Tris-Cl pH 7.5, 100 mM NaCl"}, "PfIscU": {"target": "T3, PfIscU (Plasmodium falciparum, UniProt Q8IKT4)", "T3 construct": "gene IscU; GST fusion from pGEX-KG in E. coli BL21(DE3), GST removed by thrombin", "T3 sequence (Q8IKT4 1-162)": "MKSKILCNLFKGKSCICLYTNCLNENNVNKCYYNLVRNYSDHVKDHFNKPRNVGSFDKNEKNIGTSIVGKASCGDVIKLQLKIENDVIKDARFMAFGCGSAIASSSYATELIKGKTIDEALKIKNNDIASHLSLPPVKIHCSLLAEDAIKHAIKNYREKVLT", "test": "chemical reconstitution, cluster donor assay, UV-VIS", "format": "binding", "conditions": "anaerobic, 25 mM Tris-Cl pH 7.5, 100 mM NaCl"}, "[1]": {"target": "the molecule itself", "test": "SDS-PAGE of the purified protein; purified PfATM1-CTD on Coomassie-stained SDS-PAGE and western blot with anti-6XHis Ab; dimer of about 60 kDa beside the monomer of about 30 kDa; broken with DTT and urea"}, "[2]": {"substrate": "Nc1ncnc2c1ncn2[C@@H]1O[C@H](COP(=O)(O)OP(=O)(O)OP(=O)(O)O)[C@@H](O)[C@H]1O", "test": "ATPase, phosphate release (EnzChek MESG/PNP)", "format": "biochemical, Plasmodium falciparum", "conditions": "500 nM holo-PfATM1, increasing ATP, no GSSG"}, "[3]": {"target": "the molecule itself", "test": "SEC + native gel or EMSA; Superdex S-200; fractions electrophoresed on 6% native-PAGE; dimer to monomers"}}}
{"molecule": "[S]12[Fe]3[S]4[Fe]1[S]1[Fe]2[S]3[Fe]41", "note": "[[4Fe-4S]]", "values": [{"measurement": "UV-VIS spectroscopy", "setting": "PfATM1-CTD", "value": "A lower intensity [4Fe-4S] peak was also observed in PfATM1-CTD"}, {"measurement": "chemical reconstitution, cluster donor assay, UV-VIS", "setting": "PfIscA2", "value": "Reconstituted PfIscU and PfIscA2 carrying [4Fe-4S] were then used as cluster donors"}, {"measurement": "chemical reconstitution, cluster donor assay, UV-VIS", "setting": "PfIscU", "value": "Reconstituted PfIscU and PfIscA2 carrying [4Fe-4S] were then used as cluster donors"}]}
{"molecule": "B1", "values": [{"measurement": "stoichiometry N", "setting": "[1]", "value": 2}]}
{"molecule": "B2", "values": [{"measurement": "Km", "setting": "[2]", "value": "178.9 ± 34.86", "unit": "µM"}, {"measurement": "kcat", "setting": "[2]", "value": "0.129 ± 0.00767", "unit": "s⁻¹"}]}
{"molecule": "B3", "values": [{"measurement": "stoichiometry N", "setting": "[3]", "value": 2}]}
